Data published in patent publication US20240279288A1, “APPLICATION OF PLANT JAZ PROTEINS AND DERIVED POLYPEPTIDES IN PREVENTION AND TREATMENT OF HUMAN AND ANIMAL TUMORS” (ANYANG INSTITUTE OF SINO-COTTON INDUSTRY INNOVATION, priority 2021, published 2024).

B1: GhJAZ1 after deletion of NT domain: GhJAZ1 mutant with NT domain deleted, protein sequence SEQ ID No. 83 (protein)
chain: MSSCSESTAMKPARSPEANGTPVVPPPTMNLFPLNDKSDDVCGRNGGNPKNLTSMDLFPQQAGLASKDDSPNKLEPQTAPMTIFYGGQVIVFNDFPANKAKEIMLLASNSSSQSNNSFNPIPFTSSIARSPIESSIGVPPTSKPVHPAQRAVPGDLPIARRASLHRFLEKRKDRITAKAPYQINNSAAAPSLSGDNKSWLGLAAQSP
B2: GhJAZ1: cotton JAZ1 protein, gene number Gh_A05G0260, sequence SEQ ID No. 4; prokaryotically expressed with His tag, about 30 KD (protein)
chain: MSSCSESTAMKPARSPEKPSFAQTCNLLSQYLKEKGSFGDLSLGMTCNVEANGTPVVPPPTMNLFPLNDKSDDVCGRNGGNPKNLTSMDLFPQQAGLASKDDSPNKLEPQTAPMTIFYGGQVIVFNDFPANKAKEIMLLASNSSSQSNNSFNPIPFTSSIARSPIESSIGVPPTSKPVHPAQRAVPGDLPIARRASLHRFLEKRKDRITAKAPYQINNSAAAPSLSGDNKSWLGLAAQSP
modifications: His tag
notes: prokaryotically expressed with His tag, about 30 KD

Assays:
GhTPL = assay: Yeast two hybrid with GhTPL; assay type: binding, cotton
Chain of GhTPL (as listed by the source): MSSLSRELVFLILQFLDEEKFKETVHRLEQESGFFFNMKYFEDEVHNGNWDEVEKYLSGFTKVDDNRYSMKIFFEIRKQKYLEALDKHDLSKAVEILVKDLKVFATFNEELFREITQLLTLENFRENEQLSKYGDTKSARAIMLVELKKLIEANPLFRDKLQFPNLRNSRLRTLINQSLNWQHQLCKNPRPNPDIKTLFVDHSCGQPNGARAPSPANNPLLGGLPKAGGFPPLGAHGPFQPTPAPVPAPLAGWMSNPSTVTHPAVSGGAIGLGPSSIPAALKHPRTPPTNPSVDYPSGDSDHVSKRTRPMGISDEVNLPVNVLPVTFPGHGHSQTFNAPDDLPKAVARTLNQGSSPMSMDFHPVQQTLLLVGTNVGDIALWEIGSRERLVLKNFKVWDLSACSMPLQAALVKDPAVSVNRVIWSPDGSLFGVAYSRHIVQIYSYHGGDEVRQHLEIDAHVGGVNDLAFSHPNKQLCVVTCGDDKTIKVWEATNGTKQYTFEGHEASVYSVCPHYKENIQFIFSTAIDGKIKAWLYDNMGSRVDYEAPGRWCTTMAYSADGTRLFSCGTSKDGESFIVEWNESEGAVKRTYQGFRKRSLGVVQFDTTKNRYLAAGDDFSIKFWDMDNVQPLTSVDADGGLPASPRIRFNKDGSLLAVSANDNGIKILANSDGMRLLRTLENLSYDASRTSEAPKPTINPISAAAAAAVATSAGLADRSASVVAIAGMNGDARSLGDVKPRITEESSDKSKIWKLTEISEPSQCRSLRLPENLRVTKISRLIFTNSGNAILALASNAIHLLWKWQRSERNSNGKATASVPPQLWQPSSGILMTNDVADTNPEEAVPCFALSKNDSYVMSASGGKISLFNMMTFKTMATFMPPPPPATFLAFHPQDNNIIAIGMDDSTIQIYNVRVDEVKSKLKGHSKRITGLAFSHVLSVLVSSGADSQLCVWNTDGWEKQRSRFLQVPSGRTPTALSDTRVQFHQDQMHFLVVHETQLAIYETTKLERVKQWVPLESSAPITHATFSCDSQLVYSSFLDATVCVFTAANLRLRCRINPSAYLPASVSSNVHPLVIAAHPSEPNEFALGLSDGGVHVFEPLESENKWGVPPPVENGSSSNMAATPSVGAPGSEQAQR
Experimental: The study on Arabidopsis had shown that the inhibition of JAZ protein on JA signaling was mainly achieved by inhibiting the transcription factor function of MYC, which had been experimentally verified by us in cotton. Based on the phylogenetic tree of Arabidopsis and cotton JAZs, we screened 6 cotton JAZs (GhJAZ1, GhJAZ7, GhJAZ9, GhJAZ10, GhJAZ11 and GhJAZ31), which were analyzed with GhMYC2, GhNINJA, GhTPL, GhHDA6, and GhCOI1 for yeast two hybrid. The amino acid sequence of GhJAZ1 was set forth in SEQ ID No. 4, and the corresponding encoding gene sequence was set forth in SEQ ID No. 39; the amino acid sequence of GhJAZ7 was set forth in SEQ ID No. 7, and the corresponding encoding gene sequence was set forth in SEQ ID No. 42; the amino acid sequence of GhJAZ9 was set forth in SEQ ID No. 2, and the corresponding encoding gene sequence was set forth in SEQ ID No. 37; the amino acid sequence of GhJAZ10 was set forth in SEQ ID No. 3, and the corresponding encoding gene sequence was set forth in SEQ ID No. 38; the amino acid sequence of GhJAZ11 was set forth in SEQ ID No. 5, and the corresponding encoding gene sequence was set forth in SEQ ID No. 40; and the amino acid sequence of GhJAZ31 was set forth in SEQ ID No. 9, and the corresponding encoding gene sequence was set forth in SEQ ID No. 44. The amino acid sequence of GhMYC2 was set forth in SEQ ID No. 71, and the corresponding encoding gene sequence was set forth in SEQ ID No. 72; the amino acid sequence of GhNINJA was set forth in SEQ ID No. 73, and the corresponding encoding gene sequence was set forth in SEQ ID No. 74; the amino acid sequence of GhTPL was set forth in SEQ ID No. 75, and the corresponding encoding gene sequence was set forth in SEQ ID No. 76; the amino acid sequence of GhHDA6 was set forth in SEQ ID No. 77, and the corresponding encoding gene sequence was set forth in SEQ ID No. 78; and the amino acid sequence of GhCOI1 was set forth in SEQ ID No. 79, and the corresponding encoding gene sequence was set forth in SEQ ID No. 80. […]

c-Myc = c-Myc (Homo sapiens, UniProt P01106); assay: Yeast two hybrid with c-Myc; assay type: binding; set-up: with the full length of c-Myc and NMYC, respectively; expressed in transfected cells; host or cells: yeast Y2HGold
Chain of c-Myc (P01106 whole entry): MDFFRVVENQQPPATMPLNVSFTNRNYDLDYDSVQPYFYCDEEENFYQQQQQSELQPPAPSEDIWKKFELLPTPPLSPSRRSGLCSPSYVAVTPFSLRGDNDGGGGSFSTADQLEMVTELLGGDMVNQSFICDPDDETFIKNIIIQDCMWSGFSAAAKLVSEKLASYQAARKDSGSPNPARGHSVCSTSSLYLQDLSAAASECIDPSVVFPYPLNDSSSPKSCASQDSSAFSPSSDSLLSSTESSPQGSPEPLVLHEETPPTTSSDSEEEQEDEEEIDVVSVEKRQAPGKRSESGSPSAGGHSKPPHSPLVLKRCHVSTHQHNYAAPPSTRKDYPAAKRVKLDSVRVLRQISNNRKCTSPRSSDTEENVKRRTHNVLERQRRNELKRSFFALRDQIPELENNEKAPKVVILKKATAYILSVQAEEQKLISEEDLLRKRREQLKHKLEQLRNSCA
Excerpt: […]

Row | Molecule | interaction with GhTPL (GhTPL) | interaction with c-Myc (c-Myc)
1 | B1 | significantly weakened | significantly weakened
2 | B2 | interacted | interacted
